To fix the notation:
B1: Hairpin Ribozyme (parent)
chain: GUCCUCUUUCACGUGCGCGUGAAAGAGAGAAGUGAACCAGAGAAACACACGUUGUGGUAUAUUACCUGGUA

Variants of B1 are the subject of the series. The series is described as follows: self-cleavage, relative activity (ratio to wild type); higher = more cleavage; co-transcriptional.
With U2G A49U, the self-cleavage is 0.053.

For the variant U2G U33A, the self-cleavage turned out to be 0.115.

Consider U2C U70G, for which the self-cleavage worked out at 0.269. The figure for U2C U70C is 0.16; for U2A C18U it is 0.314; for C3A G27C it is 0.21. For G1U G25U, the self-cleavage is 0.21.

Consider G1U G25A, for which the self-cleavage was 0.133.

Regarding G1U G25C, the self-cleavage was found to be 0.0754. The figure for G1U U5G is 0.194. The figure for U2C A36C is 0.17. The figure for U2C A36U is 0.207. As for U2G U58C, the self-cleavage amounted to 0.384. The figure for U2G U53C is 0.575. The figure for U2C C48A is 0.0257; for C3A C10A it is 0.461; for G1U G54U it is 0.141.

On to G1U G54A, for which the self-cleavage turned out to be 0.0766. Under U2G A59U stands 0.0332. As to U2G A59C, the self-cleavage was 0.223. The figure for G1U C12A is 0.0913; for U2A G56U it is 0.179.

Turning to G1U U33C, the self-cleavage was found to be 0.173. The figure for C3A C50U is 0.236; for C3A C50A it is 0.145; for U2G G42A it is 0.0588. The figure for C3A A61C is 0.16; for U2A A35U it is 0.174; for U2A A35G it is 0.225. Under U2A A35C stands 0.374. With U2A A22U, the self-cleavage came out at 0.208. The figure for C3A G25A is 0.457. With C3A C46G, the self-cleavage is 0.105. Under U2C G27C stands 0.153; under U2G A23U, 0.265; under U2C U58C, 0.175.

Regarding U2G G21A, the self-cleavage was 0.265. For U2G A64U, the self-cleavage came out at 0.0768. Under G1U G42U stands 0.162. The figure for G1U G42C is 0.0939; for G1U G42A it is 0.121; for U2A A49G it is 0.188. The figure for U2A G32C is 0.0974; for U2C A41C it is 0.0362. For U2C G32A, the self-cleavage was 0.138.

As for U2C G32C, the self-cleavage came out at 0.174. The figure for C3A A35C is 1.15. Consider U2G U8A, for which the self-cleavage was 0.295. Under U2G C46A stands 0.121; under U2G A41C, 0.566. The figure for G1U G56A is 0.127; for U2G G69C it is 0.0755; for U2G A45C it is 0.0592. Regarding U2G A45U, the self-cleavage is 0.0683. For U2G G57C, the self-cleavage was 0.117. The figure for U2A C3A is 0.401; for U2G G51A it is 0.306; for U2G G51U it is 0.389. For C3A C66U, the self-cleavage was 0.435. The figure for C3A C66A is 0.188; for C3A C66G it is 0.234.

As to C3A A43G, the self-cleavage was found to be 0.143. The figure for C3A A11G is 0.686; for C3A A11C it is 0.618. The figure for C3A G21U is 0.655. The figure for C3A G21A is 0.567. Consider U2G G40A, for which the self-cleavage turned out to be 0.105.

With C3A C38G, the self-cleavage came out at 0.156. The figure for U2G A71G is 0.307; for U2A A28C it is 0.258; for U2A A28U it is 0.136. Under U2C U67C stands 0.0838; under G1U G57U, 0.125; under G1U G57C, 0.145. The figure for U2A G21C is 0.186; for U2A G21A it is 0.204.

On to C3A G15C, for which the self-cleavage was 0.65. Under G1U C18A stands 0.157.

Turning to C3A G69A, the self-cleavage was 0.275. Take C3A G69U: the self-cleavage was found to be 0.212. The figure for G1U C10A is 0.151; for G1U C10U it is 0.132. As to G1U C38A, the self-cleavage turned out to be 0.154. The figure for U2G C4A is 0.242. The figure for U2G C4U is 0.15; for U2A U62G it is 0.088; for U2A A44G it is 0.119.

Take U2A C6U: the self-cleavage came out at 0.182.

Turning to U2A C6G, the self-cleavage is 0.247.

On to U2A C6A, for which the self-cleavage worked out at 0.238. Under U2G U55A stands 0.195; under U2G U55G, 0.367.

As for U2C A49U, the self-cleavage was 0.141.

Consider U2G C48U, for which the self-cleavage was determined as 0.117. Take G1U U53C: the self-cleavage was determined as 0.179. Under U2C G29U stands 0.0528; under U2C G29C, 0.16; under C3A C48A, 0.152. Turning to G1U A45U, the self-cleavage stood at 0.228. Regarding C3A G19C, the self-cleavage stood at 0.535. For the variant C3A G19U, the self-cleavage was determined as 0.582. Under U2C G25U stands 0.134. Under U2C G25A stands 0.195; under U2C A30G, 0.349.

Take C3A C37G: the self-cleavage came to 0.32.

As to U2A G29U, the self-cleavage came out at 0.111. Turning to U2G A24C, the self-cleavage was determined as 0.293.

As to U2G A24G, the self-cleavage came to 0.293.

On to U2G A24U, for which the self-cleavage stood at 0.238.

As to U2G A30G, the self-cleavage was 0.0671. The figure for C3A G54U is 0.403; for C3A C65A it is 0.662. Under U2C A43U stands 0.177; under U2C A43C, 0.0996; under U2A G34C, 0.501.

For the variant U2A G34A, the self-cleavage amounted to 0.319.

For the variant C3A A44C, the self-cleavage came out at 0.123.

Take U2G U14G: the self-cleavage came to 0.322. With U2G A35U, the self-cleavage is 0.27.

As to U2C A22C, the self-cleavage worked out at 0.161.

As to C3A A49G, the self-cleavage is 0.426. In the case of U2C C66G, the self-cleavage came to 0.0316. The figure for U2C C66A is 0.0248. As for U2G G17C, the self-cleavage was 0.367. The figure for U2A G69A is 0.215.

On to U2G A36G, for which the self-cleavage was determined as 0.274. Under U2G A36C stands 0.208; under U2C A39U, 0.249. The figure for U2G C12G is 0.184; for U2A A64C it is 0.112; for U2G A22C it is 0.354.

Take U2G A22G: the self-cleavage turned out to be 0.264. The figure for U2A G13U is 0.186; for U2A A41G it is 0.0798; for U2A A41C it is 0.379. The figure for G1U C66U is 0.0959; for G1U C48G it is 0.0484; for U2A U55C it is 0.153.

On to U2G G19U, for which the self-cleavage stood at 0.336. The figure for U2A U60C is 0.542; for U2A U60G it is 0.222. Under U2A C37A stands 0.161. For the variant U2C U9C, the self-cleavage was determined as 0.139. The figure for U2C U9G is 0.0171; for U2C U9A it is 0.109; for U2C G54C it is 0.127. The figure for G1U G17A is 0.2. The figure for G1U G17C is 0.112; for U2A A30C it is 0.162; for G1U G19U it is 0.134. With G1U G19C, the self-cleavage amounted to 0.105. The figure for U2A C16G is 0.156. Under U2A A23G stands 0.332; under G1U A49U, 0.0947. Under G1U A49C stands 0.202; under U2G U67A, 0.139; under U2G G13A, 0.338. Consider C3A G13A, for which the self-cleavage turned out to be 0.628.

With U2A C65G, the self-cleavage was 0.146. Consider G1U G21C, for which the self-cleavage was 0.112. The figure for G1U G21U is 0.109; for G1U U70A it is 0.111; for G1U U70G it is 0.0694.

Consider G1U U20C, for which the self-cleavage was 0.203. As for G1U U20G, the self-cleavage amounted to 0.0885.

In the case of U2A G25A, the self-cleavage is 0.259. For the variant U2C C16U, the self-cleavage came to 0.163.

The record behind these values is the RNAGym collection of RNA variant scans (doi:10.7554/elife.80360).
